Experimental data from patent US20110076268A1 (CRUCELL HOLLAND B V, published 2011).

Columns and labels:
[1] = target: F protein of MARM 1129 (RSV A2 escape mutant generated against murine mAb 1129) (Respiratory Syncytial Virus strain A2) (UniProt P03420); assay: cell-based or functional assay
[2] = target: F protein of MARM 151 (RSV A2 escape mutant generated against murine mAb 151) (Respiratory Syncytial Virus strain A2) (UniProt P03420); assay: cell-based or functional assay
[3] = target: F protein of MARM 19 (RSV A2 escape mutant generated against human Fab 19) (Respiratory Syncytial Virus strain A2) (UniProt P03420); assay: cell-based or functional assay
[4] = target: F protein of RSV B-1 (ATCC Cat. No. 1400) (Respiratory Syncytial Virus B, strain B-1) (UniProt O36634); assay: cell-based or functional assay
[5] = target: F protein of RSV B-wash (ATCC Cat. No. VR-1580, strain 18537) (Respiratory Syncytial Virus B, strain 18537) (UniProt P13843); assay: cell-based or functional assay
[6] = target: F protein of the IgG form of 58C5 MARM (N63K, M115K and E295G) (Respiratory Syncytial Virus strain A2) (UniProt P03420); assay: cell-based or functional assay
[7] = target: F protein of the motavizumab MARM (K272E) (Respiratory Syncytial Virus strain A2) (UniProt P03420); assay: cell-based or functional assay
[8] = target: T1, RSV strain A2 F protein (recombinant or native, not specified for Table 19) (Respiratory Syncytial Virus strain A2, UniProt P03420 26-524); assay: ELISA, IgG titrated on captured RSV F protein; EC50 estimated
T1 construct: also called RSV F Protein

Molecule IgG form of 58c5 (antibody) has an Average Plaque Count, 0.003 ug/ml [1] of 17.7 plaques, an Average Plaque Count, 0.016 ug/ml [1] of 11.7 plaques and an Average Plaque Count, 0.08 ug/ml [1] of 5.7 plaques. It also gave an Average Plaque Count, 0.4 ug/ml [1] of 2.3 plaques, an Average Plaque Count, 2 ug/ml [1] of 0 plaques and an Average Plaque Count, 10 ug/ml [1] of 0 plaques. For the same molecule, the Plaque reduction rate, 0.003 ug/ml [1] was 21%, the Plaque reduction rate, 0.016 ug/ml [1] was 47% and the Plaque reduction rate, 0.08 ug/ml [1] was 74%. For the same molecule, the Plaque reduction rate, 0.4 ug/ml [1] was 90%, the Plaque reduction rate, 2 ug/ml [1] was 100% and the Plaque reduction rate, 10 ug/ml [1] was 100%. The Average Plaque Count, 0.003 ug/ml [2] was 151 plaques, the Average Plaque Count, 0.016 ug/ml [2] was 128 plaques and the Average Plaque Count, 0.08 ug/ml [2] was 112 plaques. The Average Plaque Count, 0.4 ug/ml [2] was 64.7 plaques, the Average Plaque Count, 2 ug/ml [2] was 15.3 plaques and the Average Plaque Count, 10 ug/ml [2] was 0 plaques. It also gave a Plaque reduction rate, 0.003 ug/ml [2] of 0%, a Plaque reduction rate, 0.016 ug/ml [2] of 15% and a Plaque reduction rate, 0.08 ug/ml [2] of 26%. For the same molecule, the Plaque reduction rate, 0.4 ug/ml [2] was 57%, the Plaque reduction rate, 2 ug/ml [2] was 90% and the Plaque reduction rate, 10 ug/ml [2] was 100%. It also gave an Average Plaque Count, 0.003 ug/ml [3] of 143 plaques, an Average Plaque Count, 0.016 ug/ml [3] of 135 plaques and an Average Plaque Count, 0.08 ug/ml [3] of 89.3 plaques. The Average Plaque Count, 0.4 ug/ml [3] was 72 plaques, the Average Plaque Count, 2 ug/ml [3] was 16.7 plaques and the Average Plaque Count, 10 ug/ml [3] was 0.7 plaques. It also gave a Plaque reduction rate, 0.003 ug/ml [3] of 8%, a Plaque reduction rate, 0.016 ug/ml [3] of 14% and a Plaque reduction rate, 0.08 ug/ml [3] of 42.7%. For the same molecule, the Plaque reduction rate, 0.4 ug/ml [3] was 53.8%, the Plaque reduction rate, 2 ug/ml [3] was 89% and the Plaque reduction rate, 10 ug/ml [3] was 100%. The Average Plaque Count, 0.003 ug/ml [4] was 11.7 plaques, the Average Plaque Count, 0.016 ug/ml [4] was 9.3 plaques and the Average Plaque Count, 0.08 ug/ml [4] was 4 plaques. It also gave an Average Plaque Count, 0.4 ug/ml [4] of 0.3 plaques, an Average Plaque Count, 2 ug/ml [4] of 0 plaques and an Average Plaque Count, 10 ug/ml [4] of 0 plaques. The Plaque reduction rate (%), 0.003 ug/ml [4] was 5%, the Plaque reduction rate (%), 0.016 ug/ml [4] was 24% and the Plaque reduction rate (%), 0.08 ug/ml [4] was 67.5%. It also gave a Plaque reduction rate (%), 0.4 ug/ml [4] of 97.6%, a Plaque reduction rate (%), 2 ug/ml [4] of 100% and a Plaque reduction rate (%), 10 ug/ml [4] of 100%. It also gave an Average Plaque Count, 0.003 ug/ml [5] of 20.7 plaques, an Average Plaque Count, 0.016 ug/ml [5] of 16.3 plaques and an Average Plaque Count, 0.08 ug/ml [5] of 7.7 plaques. The Average Plaque Count, 0.4 ug/ml [5] was 1.3 plaques, the Average Plaque Count, 2 ug/ml [5] was 0 plaques and the Average Plaque Count, 10 ug/ml [5] was 0 plaques. The Plaque reduction rate (%), 0.003 ug/ml [5] was 21%, the Plaque reduction rate (%), 0.016 ug/ml [5] was 38% and the Plaque reduction rate (%), 0.08 ug/ml [5] was 71%. The Plaque reduction rate (%), 0.4 ug/ml [5] was 95%, the Plaque reduction rate (%), 2 ug/ml [5] was 100% and the Plaque reduction rate (%), 10 ug/ml [5] was 100%. The ED50, neutralization of IgG 58C5 MARM [6] was > 66.7 nM, the Plaque reduction rate, IgG 58C5 MARM, 3.2 ng/ml [6] was 0% and the Plaque reduction rate, IgG 58C5 MARM, 16 ng/ml [6] was 0%. The Plaque reduction rate, IgG 58C5 MARM, 80 ng/ml [6] was 0%, the Plaque reduction rate, IgG 58C5 MARM, 400 ng/ml [6] was 0% and the Plaque reduction rate, IgG 58C5 MARM, 2000 ng/ml [6] was 0%. For the same molecule, the Plaque reduction rate, IgG 58C5 MARM, 10000 ng/ml [6] was 3.3%, the ED50, neutralization of Motavizumab MARM [7] was 0.173 nM and the Plaque reduction rate, Motavizumab MARM, 3.2 ng/ml [7] was 1.5%. For the same molecule, the Plaque reduction rate, Motavizumab MARM, 16 ng/ml [7] was 43%, the Plaque reduction rate, Motavizumab MARM, 80 ng/ml [7] was 74.6% and the Plaque reduction rate, Motavizumab MARM, 400 ng/ml [7] was 92%. It also gave a Plaque reduction rate, Motavizumab MARM, 2000 ng/ml [7] of 95.8% and a Plaque reduction rate, Motavizumab MARM, 10000 ng/ml [7] of 97.6%.

B1: Motavizumab (antibody, V domains shown)
VH: QVTLRESGPALVKPTQTLTLTCTFSGFSLSTAGMSVGWIRQPPGKALEWLADIWWDDKKHYNPSLKDRLTISKDTSKNQVVLKVTNMDPADTATYYCARDMIFNFYFDVWGQGTTVTVSS
VL: DIQMTQSPSTLSASVGDRVTITCSASSRVGYMHWYQQKPGKAPKLLIYDTSKLASGVPSRFSGSGSGTEFTLTISSLQPDDFATYYCFQGSGYPFTFGGGTKVEIK
In the case of B1, the EC50 [8] is reported as ~0.027 nM.
